Source: the nanobody polyreactivity screen of Harvey et al. (2022)

Assay: yeast display, Sf9 membrane polyspecificity reagent, FACS + sequencing; frameworks hold sequencing errors
How it was run: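 Synthetic nanobody libraries on Saccharomyces cerevisiae BJ5465 were galactose-induced for 36–48 hours, stained 1 hour at 4 °C with 10% biotinylated, detergent-solubilized Sf9 membrane reagent and enriched on streptavidin microbeads. FACS then separated cells into low and high (top ~1%) gates by anti-HA (expression) and streptavidin (reagent binding) fluorescence. Genes were colony-PCR amplified, MiSeq 2 × 250 sequenced and CDR-length filtered. A clone's polyreactivity label is that of its gate of origin.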

| Sequence | polyreactivity (PSR sort gate) |
| --- | --- |
| QVQLVESGGGLVQAGGSLRLSCAASGYTSRTNAMGWYIQAPGKERELVAAITWRGTRTYYADSVKGRFTISRDNAKNTVYLQMNSLKPEDTAVYYCATQWIRKYDYWGQGTQVTVSS | high polyreactivity |
| QVQLVESGGGLVQAGGSLRLSCAASGYTSYVYAMGWYRQAPGKERELVAAISLRTASTYYADSVKGRFTISRDTAQKTVYVQMNSLKPEDTAVYYCARGRETYRYSYRLNYWGQGTQVTVSS | high polyreactivity |
| QVQLVESGGGLVQAGGSLRLSCAASGYTVAFYDMGWYRQAPRKERELVAAISASGGSTYYADSVKGRFTISRDNAKNTVYLQMNSLKPEDTAVYYCAARSKYRGDMDYWGQGTQVTVSS | high polyreactivity |
| QVQLVESGGGLVQAGGSLRLSCAASGYTYEYYAMGWYRQAPGKERELVAAISWSGGDTYYADSVKGRFTISRDNAKNTVYIQMNSLKPEDTAVYYCNAVLYTYYYYANWYGAYDYWGQGTQVTVCS | low polyreactivity |
| QVQLVESGGGLVQAGGSLRLSCAASGYTYGYNAMGSYRQAPGKERELVAAITKNGGSTYYADSVKGRFTISRDNAKNTVYLQMNSLKPEDTAVYYCAARIYYSRTFGYYYWGQGTQVTVSS | high polyreactivity |
| QVQLVESGGGLVQAGGSLRLSCAASISSINAMGWYRQAPGKERELVAAIRWSGSSTYYADSVKGRFTISRDNAKNTVYLQMNSLKPEDTAVYYCAARYVRVGYDYWGQGTQVTVSS | high polyreactivity |
| QVQLVESGGGLVQAGGSLRLSCAASRIIFDDNAMGWYRQAPGKEMELVAAISRRGGSTYYADSVKGRFTISRDNAKNTVYLQMNSLKPEDTAVYYCAATTRTSSLYNYWGQGTQVTVSS | high polyreactivity |
| QVQLVESGGGLVQAGGSLRLSCAASRIIFYGNAMGWYRQAHGKERELVAAIDQSGDSTYYADSVKGRFTISRDNAKNTVYLQMNSLKPEDTAVYYCAADSLYLAYEYWGQGTQVTVSS | high polyreactivity |
| QVQLVESGGGLVQAGGSLRLSCAASRITSYPYAMGWSRQGPGKERELVAAISKRGGGTYYADSVKGPFTISRDNAMNTVYLQLNSLKPVDTAVYYCAKSWGPTTYKIVPAYGYWGQGTQVTVSS | high polyreactivity |
| QVQLVESGGGLVQAGGSLRLSCAASRRIIGAYAMGWDRQAPGKEWELVARISWSGGTTYYADSVKGRFPISRDNAKNTVYLQMNSLKPEDTAVYYCAARYSYYVTGGISKYDYWGQGTQVTVSS | low polyreactivity |
| QVQLVESGGGLVQAGGSLRLSCAASRRIYYWYVMGWYRQAPGKERELVASISWSGGSTYYADSVKGRFTISRDNAKNTVYLQMNSLKPEDTAVYYCNAGSVYTVSLPGHPYDYWGQGTQVTVSS | low polyreactivity |
| QVQLVESGGGLVQAGGSLRLSCAASRRTFWNYAMGWYRQAPGKESEFVAVIRFSDGSTYYADSVKGRFTISRDNAKTTVYLQMHSLKPEDTPVYYCAAKGPRRWGSGFDYWGQRTQVTVSS | low polyreactivity |
| QVQLVESGGGLVQAGGSLRLSCAASRSIFPLYAMGWYRQAPGKERELVAAITYSGGRTYYADSVKGRFTISRDNAKNTVYLQMISLKPEDTAVYYCNTRQRVIDDYWGQGTQVTVSS | high polyreactivity |
| QVQLVESGGGLVQAGGSLRLSCAASRSIFSQYSRGCYRQAPGKERELVATITWRGGSNTNYADSVKGRFTISRDNAKNTVYLQMNSLKPEDTAVYYCNAAFPYHYRFDYWGQGTQVTVSS | low polyreactivity |
| QVQLVESGGGLVQAGGSLRLSCAASRSTFEIYAMGWYRPAPGKERELFAAISSGGSTNYADSVKGRFTISRDNAKNTVYLQMKSLITEDTAVYYCVYAIQFYYWGQGTQVTVSS | low polyreactivity |
| QVQLVESGGGLVQAGGSLRLSCAASRSTFVLYDMGWYRPAPGKERELVAAISRSGDSTYYADSVKGRYTISRDNAKNTVYLQMNSLKPEDTAVYYCAAKRRISTGMDYWGQGTQGTVSS | high polyreactivity |
| QVQLVESGGGLVQAGGSLRLSCAASRSTIPSYAMGWSRQAPGKERELVASITYSDGTTRYADSVKGRFTISRDNAKNTVYLQMNSLKPEDTAVYYCNAVYYRDGMDYWGQGTQVTVSS | low polyreactivity |
| QVQLVESGGGLVQAGGSLRLSCAASVFTFLYYAMGWYRQAPGKERELVAAISSTGGTTYYADSVKGRFTISRDNAKNTVYLQMNSLKPEDTAVYYCAADQGVYRTYWFDYWGQGTQVTVSS | high polyreactivity |
| QVQLVESGGGLVQAGGSLRLSCAASVFTFTVNTMGWYRQAPGKERELVAANSNTGSTKYADSVKGRFTISRDKAKNTLYLQMNSLKPEDTAVFYCAAEPGYYSRPDYRVYRVYYWGQGTQVTVSS | high polyreactivity |
| QVQLVESGGGLVQAGGSLRLSCAASVFTFYLYAMGWDRQAPGKERELVADITKRGGSTDYADSVKGRFTISRDNAKNTVYLQMNSLKPEDTAVYYCAARGPTFGVDYGYWGQGTQVTVSS | high polyreactivity |
| QVQLVESGGGLVQAGGSLRLSCAASVIIFQVYAMGWYRQAAGKERELVAAITRRGASTYYADSVKGRFTISRDNPKNTDYLQMNSLKPEETAVYYFNARAYYRLYKSKLGYWGQGTQVTVSS | high polyreactivity |
| QVQLVESGGGLVQAGGSLRLSCAASVIIFRQYAMGWSRQAPGKERELVAAISGSGGTTYYADSVKGRFTISRDNAKNTVYLQMNSLKPEDTAVYYCAADSSSRGRLDYWGQGTQVTVSS | high polyreactivity |

| Sequence | polyreactivity (PSR sort gate) |
| --- | --- |
| QVQLVESGGGLVQAGGSLRLSCAASVITLFGYTMGWYRQAPGKERELVAAIRRRGVSTYYADSVKGRFTISRDNAKNTVYLQMNSLKPEDTAVYYCAKSLKPYTDYDYWGQGTQVTVSS | high polyreactivity |
| QVQLVESGGGLVQAGGSLRLSCAASVNTFYGYDMGWYRQAPGKEWELVASITLSGDSTYYADSVKGRFTISRDNEKNTVYLQMNSLKPEDTAVYYCAGVYTYPLGYYHYTYAYWGQGTQVTVSS | low polyreactivity |
| QVQLVESGGGLVQAGGSLRLSCAASVRIFGVYAMGWYRQAPGKERELVAAITSGGSTTYADSVKGRFTISRDNAKNTVYLQMNSLKPEDTAVYYCNKEPQPFFLYGYWGQGTQVTVSS | low polyreactivity |
| QVQLVESGGGLVQAGGSLRLSCAASVRIFPHKAMGWYIQAPGKERELVAAISSNGGSTYYADSVKGRFTISRDNAKNTVYLQMNSLKPEDTAVYYCAKYRYFAGDGDYWGQGTQVTVSS | low polyreactivity |
| QVQLVESGGGLVQAGGSLRLSCAASVRIFPTNAMGWYRQAPGKEREFVAAITWLGGSTYYADSVKGRFTISRDNAKNTVYLQMNRLKPEDTAVYYCAATGHIVFFRAYDYGYWGQGTQVTVSS | low polyreactivity |
| QVQLVESGGGLVQAGGSLRLSCAASVRIFRFYVMGWYRQAPGKERELVAAISKRGASTSYADSVKGRFTISRDNAKNTVYLQMNSLKPEDTAVYYCAASAKRGEMGYWGQGTQVTVSS | high polyreactivity |
| QVQLVESGGGLVQAGGSLRLSCAASVRIFSINAMGWYRQAPGKERELVAAINSGGSTHYADSVKGRFTISRDNAKNTVYLQMNSLKPEDTAGYYCAARKTVSYFRVRTFDYWGQGTQVTVSS | low polyreactivity |
| QVQLVESGGGLVQAGGSLRLSCAASVRTFGQNTMGWYIQAPGKEREFVAAIDFNGGSTYYADSVKGRFTISRDNAKNTVYLQMNSLKPEDTAVYYCAADIYFYYYGSYDYWGQGTQVTVSS | low polyreactivity |
| QVQLVESGGGLVQAGGSLRLSCAASVSIFQVYAMGWYRQAPGKERELVAAITWSAGSTYADSVKGRFTISRDNAKNTVYLQMNSLKPEDTAVYYSAAYPYVGYVSFSAYDYWGQGTQVTVSS | low polyreactivity |
| QVQLVESGGGLVQAGGSLRLSCAASVSIFRKNAMGWYRQAPGKERELVAAITYRTGSTYYADSVKGRFTISRDNAKNTVYLQMNSLKPEDTAVYYCAAQTWGSGYGHIGRRRHDYWGQGTQVTVSS | high polyreactivity |
| QVQLVESGGGLVQAGGSLRLSCAASVSIFYEYTMGWYRQAPGKERELVADITEGDGITYYADSVKGRFTISRDNAKNTVYLQMNSLKPEDTAVYYCNADVVQAVTTHYDYWGQGTQVTVSS | low polyreactivity |
| QVQLVESGGGLVQAGGSLRLSCAASVSTFRTNAMGWYRQPPGKEREMVAAITLDGGSTYYADSVKGRFTISRDNEKNTVYLQMNSLKPEDTAVYYCAADVVSVVYLPFVNGGDYWGQGTQVTVSS | low polyreactivity |
| QVQLVESGGGLVQAGGSLRLSCAASVSTFRWYAMGWYRQAPGKERELVAAISWSGSTTYYADSVKGRFTISRDNAKNTVYLQMNSLKPEDTAVYYCAAEVVFFGWNYDYWGQGTQVTVSS | high polyreactivity |
| QVQLVESGGGLVQAGGSLRLSCAASVSTFVVNAMGWYRQAPGKERELVAAISRSDAITYYADSVKGRFTISRDNAKNTVYLQMNSLKPEDTAVYYCAAELSYRGYPYDYWGQGTQVTVSS | high polyreactivity |
| QVQLVESGGGLVQAGGSLRLSCAASVTIFGDYTMGWYRQAPGKERELVAAITWSAGRTYYADSVKGRFTISRDNAKNTVYLQMNSLKPEDTAVYYCAAQVPEDTETVDYWGQGTQVTVSS | low polyreactivity |
| QVQLVESGGGLVQAGGSLRLSCAASVYGMGWYRQAPGKERELVAAISNGGTTYYADSEKGRFTISRDNAKNTVYLQMNSLKPEDTAVYYCADRSWPGGFIYYYWGQGTQVTVSS | low polyreactivity |
| QVQLVESGGGLVQAGGSLRLSCAASVYTFYWNAMGWYRQAPGKEREFVASFSGTSTYYADSVKGRFTISRDNAKNTVYLQMNSLKPEDTAVYYCNARLTLGPRKYEYWGQGTQVTVSS | low polyreactivity |
| QVQLVESGGGLVQAGGSLRLSCAASVYTIGLYAMGCYRQAPGKEMELVAAMSWSGGSTYYADSVKGPFTISRDNAKKTVYLQMNSLKPEDTAVYYCAAVPYFSLEMGYWGQGTQVTVSS | low polyreactivity |
| QVQLVESGGGLVQAGGSLRLSCAASYYAMGWYRQAPAKERELVASISSGGSTNYADSVKGRFTISRDNAKNTVFFQMNSLKPEDTAVYYCAADVADGVWVKIADEYWGQGTQVTVSS | low polyreactivity |
| QVQLVESGGGLVQAGGSLRLSCAATARIFVRYAMGWYRQAPGKERELVAAISTSGGRTYYADSVKGRFTISRDNAKNTVYLQMNSLKPEDTAVYYCNARIKRPRGVYGGDYWGQGTQVTVSS | high polyreactivity |
| QVQLVESGGGLVQAGGSLRLSCAATGFIFGYYALGGYRQAPGKERELVAAINKNGGSTYYADSVKGRFTISRDNAKNTVYLQMNSLKPEDTAVYYCAARARGYAWTYDYWGQGTQVTVSS | high polyreactivity |
